This passage reports binding signal, binding signal (Kd, unit not seen) and Kd results from publication PMC3218832.

For orientation: Kd means the concentration at which binding is half-saturated.

Data set [1] concerns RELARELA (p65 homodimer) (Homo sapiens). Briefly: EMSA-Seq. As to conditions: Footprinting/EMSA: 10 mM Tris pH 7.4, 75 mM NaCl, 1 mM EDTA, 1 mM DTT, 200 ug/ml BSA, 0.005% NP-40, EMSA-Seq: 12 mM HEPES pH 7.8, 75 mM KCl, 4 mM …. On the technique in general: Mobility shift assays separate free from complexed probe on a gel.
Data set [2] deals with RELA (p65) subunit of heterodimer;p52 subunit (Homo sapiens;Homo sapiens). Kind of data set: EMSA-Seq. As to conditions: Footprinting/EMSA: 10 mM Tris pH 7.4, 75 mM NaCl, 1 mM EDTA, 1 mM DTT, 200 ug/ml BSA, 0.005% NP-40, EMSA-Seq: 12 mM HEPES pH 7.8, 75 mM KCl, 4 mM ….
Data set [3] concerns RELA (p65) subunit of heterodimer;p50 subunit (Homo sapiens;Homo sapiens). Kind of data set: EMSA-Seq. As to conditions: Footprinting/EMSA: 10 mM Tris pH 7.4, 75 mM NaCl, 1 mM EDTA, 1 mM DTT, 200 ug/ml BSA, 0.005% NP-40, EMSA-Seq: 12 mM HEPES pH 7.8, 75 mM KCl, 4 mM ….
In data set [4] the target is RELA (p65) subunit of heterodimer;p50 subunit (Homo sapiens;Homo sapiens) (UniProt Q04206+P19838). Briefly: footprint. As to conditions: UV laser footprinting: 10 mM Tris pH 7.4, 75 mM NaCl, 1 mM EDTA, 1 mM DTT, 200 ug/ml BSA, 0.005% NP-40; microarray buffer in Additional file 1 (not seen); low values mean tight binding.
In data set [5] the target is RELA (p65) subunit of heterodimer;p52 subunit (Homo sapiens;Homo sapiens) (UniProt Q04206+Q00653). Briefly: footprint. As to conditions: UV laser footprinting: 10 mM Tris pH 7.4, 75 mM NaCl, 1 mM EDTA, 1 mM DTT, 200 ug/ml BSA, 0.005% NP-40; microarray buffer in Additional file 1 (not seen); low values mean tight binding.
Data set [6] deals with RELARELA (p65 homodimer) (Homo sapiens) (UniProt Q04206). Kind of data set: footprint. As to conditions: UV laser footprinting: 10 mM Tris pH 7.4, 75 mM NaCl, 1 mM EDTA, 1 mM DTT, 200 ug/ml BSA, 0.005% NP-40; microarray buffer in Additional file 1 (not seen); low values mean tight binding.
The test system of data set [7] is RELARELA (p65 homodimer) (Homo sapiens). Kind of data set: UV laser footprinting. As to conditions: Footprinting/EMSA: 10 mM Tris pH 7.4, 75 mM NaCl, 1 mM EDTA, 1 mM DTT, 200 ug/ml BSA, 0.005% NP-40, EMSA-Seq: 12 mM HEPES pH 7.8, 75 mM KCl, 4 mM ….
In data set [8] the test system is RELA (p65) subunit of heterodimer;p52 subunit (Homo sapiens;Homo sapiens). Briefly: UV laser footprinting. As to conditions: Footprinting/EMSA: 10 mM Tris pH 7.4, 75 mM NaCl, 1 mM EDTA, 1 mM DTT, 200 ug/ml BSA, 0.005% NP-40, EMSA-Seq: 12 mM HEPES pH 7.8, 75 mM KCl, 4 mM ….
Data set [9] concerns RELA (p65) subunit of heterodimer;p50 subunit (Homo sapiens;Homo sapiens). Kind of data set: UV laser footprinting. As to conditions: Footprinting/EMSA: 10 mM Tris pH 7.4, 75 mM NaCl, 1 mM EDTA, 1 mM DTT, 200 ug/ml BSA, 0.005% NP-40, EMSA-Seq: 12 mM HEPES pH 7.8, 75 mM KCl, 4 mM ….
Data set [10] concerns RELARELA (p65 homodimer) (Homo sapiens). Briefly: protein binding microarray. As to conditions: Footprinting/EMSA: 10 mM Tris pH 7.4, 75 mM NaCl, 1 mM EDTA, 1 mM DTT, 200 ug/ml BSA, 0.005% NP-40, EMSA-Seq: 12 mM HEPES pH 7.8, 75 mM KCl, 4 mM ….
Data set [11] concerns RELA (p65) subunit of heterodimer;p52 subunit (Homo sapiens;Homo sapiens). Briefly: protein binding microarray. As to conditions: Footprinting/EMSA: 10 mM Tris pH 7.4, 75 mM NaCl, 1 mM EDTA, 1 mM DTT, 200 ug/ml BSA, 0.005% NP-40, EMSA-Seq: 12 mM HEPES pH 7.8, 75 mM KCl, 4 mM ….
The test system of data set [12] is RELA (p65) subunit of heterodimer;p50 subunit (Homo sapiens;Homo sapiens). Kind of data set: protein binding microarray. As to conditions: Footprinting/EMSA: 10 mM Tris pH 7.4, 75 mM NaCl, 1 mM EDTA, 1 mM DTT, 200 ug/ml BSA, 0.005% NP-40, EMSA-Seq: 12 mM HEPES pH 7.8, 75 mM KCl, 4 mM ….

RELA (p65) subunit of heterodimer;p50 subunit (Homo sapiens;Homo sapiens) (UniProt Q04206+P19838), sequence (Q04206 1-307, chain 1 of 2): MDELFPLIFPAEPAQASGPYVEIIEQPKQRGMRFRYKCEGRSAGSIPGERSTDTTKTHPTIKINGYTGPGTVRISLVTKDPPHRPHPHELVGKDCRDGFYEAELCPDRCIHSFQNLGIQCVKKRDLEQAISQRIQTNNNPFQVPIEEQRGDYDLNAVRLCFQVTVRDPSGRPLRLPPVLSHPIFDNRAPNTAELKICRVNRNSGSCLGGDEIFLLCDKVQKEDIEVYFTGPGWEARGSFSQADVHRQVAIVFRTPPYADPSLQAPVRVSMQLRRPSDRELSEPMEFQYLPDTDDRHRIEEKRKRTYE
RELA (p65) subunit of heterodimer;p50 subunit (Homo sapiens;Homo sapiens) (UniProt Q04206+P19838), sequence (P19838 7-356, chain 2 of 2): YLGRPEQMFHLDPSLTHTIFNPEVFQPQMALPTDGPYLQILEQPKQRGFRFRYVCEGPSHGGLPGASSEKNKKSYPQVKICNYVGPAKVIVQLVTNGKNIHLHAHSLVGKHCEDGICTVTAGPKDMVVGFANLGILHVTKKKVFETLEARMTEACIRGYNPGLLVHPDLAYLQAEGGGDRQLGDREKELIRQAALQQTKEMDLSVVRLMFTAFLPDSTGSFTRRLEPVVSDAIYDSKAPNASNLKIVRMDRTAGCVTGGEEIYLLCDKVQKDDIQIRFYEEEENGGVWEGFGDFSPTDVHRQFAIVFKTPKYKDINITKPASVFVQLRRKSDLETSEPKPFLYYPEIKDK
RELA (p65) subunit of heterodimer;p52 subunit (Homo sapiens;Homo sapiens) (UniProt Q04206+Q00653), sequence (Q04206 1-307, chain 1 of 2): as the sequence (Q04206 1-307, chain 1 of 2) above
RELA (p65) subunit of heterodimer;p52 subunit (Homo sapiens;Homo sapiens) (UniProt Q04206+Q00653), sequence (Q00653 4-332, chain 2 of 2): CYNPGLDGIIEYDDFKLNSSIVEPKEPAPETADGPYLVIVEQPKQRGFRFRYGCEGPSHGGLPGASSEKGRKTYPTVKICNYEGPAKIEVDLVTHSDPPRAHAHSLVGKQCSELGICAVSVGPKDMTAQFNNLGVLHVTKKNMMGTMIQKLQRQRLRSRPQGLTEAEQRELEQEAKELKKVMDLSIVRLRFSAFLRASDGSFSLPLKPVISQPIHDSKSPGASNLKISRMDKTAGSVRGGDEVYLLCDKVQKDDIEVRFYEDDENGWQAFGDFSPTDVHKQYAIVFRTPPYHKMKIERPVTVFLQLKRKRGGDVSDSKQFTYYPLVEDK
RELARELA (p65 homodimer) (Homo sapiens) (UniProt Q04206), sequence (Q04206 1-307): as the sequence (Q04206 1-307, chain 1 of 2) above

In the case of AGGAAATTCCG 11-mer in EMSA-Seq ligands, the figures for the binding signal in [1], in data set [2] and in data set [3] were 40.9 z-score, 13 z-score and 20.4 z-score, respectively.

As for AGGAAATTCCG (double strand), the binding signal (Kd, unit not seen) in data set [4] turned out to be 4.6; in [5] it was 1.7; in [6] it was 3.25.

As to AGGAAATTCCG footprint probe, the dissociation constant (Kd) amounted to 3.25 nM in data set [7], 1.7 nM in [8] and 4.6 nM in data set [9].

Turning to AGGAAATTCCG microarray probes, the binding signal in [10] came out at 3.7 z-score; in data set [11] it was 0.55 z-score; in [12], 1.2 z-score.

Take AGGGGAAGTTA 11-mer in EMSA-Seq ligands: the figures for the binding signal in [1], in [2] and in [3] were 3.78 z-score, 27.5 z-score and 35.4 z-score, respectively.

On to AGGGGAAGTTA footprint probe, for which the Kd in data set [8] stood at 20 nM; in [9] it was 26 nM.

Consider AGGGGGATCTG 11-mer in EMSA-Seq ligands, for which the binding signal turned out to be 18.4 z-score in [2] and 23.1 z-score in data set [3].

For AGGGGGATCTG (double strand), the binding signal (Kd, unit not seen) in data set [4] stood at 10.5; in data set [5] it was 2.

For AGGGGGATCTG footprint probe, the Kd in data set [8] worked out at 2 nM; in data set [9] it was 10.5 nM.

Consider AGGGGGATCTG microarray probes, for which the values for the binding signal in data set [11] and in data set [12] were 1.76 z-score and 2.39 z-score, respectively.

Take CTGGGGATTTA 11-mer in EMSA-Seq ligands: the binding signal in data set [1] turned out to be 10.8 z-score; in data set [2] it was 19.5 z-score; in [3] it was 24.2 z-score.

Turning to CTGGGGATTTA footprint probe, the Kd in [8] came to 13.8 nM; in data set [9], 16 nM.
